Results taken from US20250136696A1 (HARBOUR BIOMED SHANGHAI, published 2025).
Values belong to the binder of their own block, whether it stands above or below them.

How the values were obtained:
[1] = molecular target: T1, biotinylated human B7-H7 protein (Acro Biosystems, B77-H82F5) (human, UniProt Q9UM44 23-344, biotinylated); assay: flow cytometry, blocking of biotinylated human B7-H7 binding to HEK-293/CD28H cells
T1 construct: Bought soluble protein; also called biotin-B7H7 protein
T1 sequence (looked up): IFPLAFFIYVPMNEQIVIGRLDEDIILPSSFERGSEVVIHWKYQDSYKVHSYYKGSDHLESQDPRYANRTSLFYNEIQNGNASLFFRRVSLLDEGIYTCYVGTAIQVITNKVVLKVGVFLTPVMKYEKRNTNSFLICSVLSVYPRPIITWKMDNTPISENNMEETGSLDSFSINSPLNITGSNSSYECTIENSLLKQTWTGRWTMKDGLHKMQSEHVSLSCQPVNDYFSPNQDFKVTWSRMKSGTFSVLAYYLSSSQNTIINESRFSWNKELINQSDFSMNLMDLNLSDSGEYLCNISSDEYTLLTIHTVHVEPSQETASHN
Description: This example was intended to study the in vitro blocking activity of human anti-B7-H7 antibodies against the binding of human B7-H7 to its receptor CD28H. […] The cells were adjusted to a cell density of 1×10⁶ cells/mL. […] The cells were incubated at 4° C. for 1 hour in the dark. […] The cells were rinsed twice by adding pre-chilled PBS containing 2% BSA at 100 μL/well, and were centrifuged at 500 g at 4° C. for 5 minutes, and the supernatant was discarded. A fluorescent secondary antibody (PE Streptavidin, BD, Cat #: 554061, 1:200) was added at 100 μL/well, and the cells were incubated at 4° C. for 30 minutes in the dark. The cells were washed twice by adding pre-chilled PBS at 200 μL/well, and centrifuged at 500 g at 4° C. for 5 minutes, and the supernatant was discarded. Finally, the cells were resuspended in pre-chilled PBS at 200 μL/well, and the fluorescence signal values were read using an ACEA Novocyte3000 flow cytometer. IC50 was calculated.

[2] = molecular target: T2, human B7-H7 recombinant protein (human, UniProt Q9UM44 23-344); assay: BLI (Octet), antibody captured on AHC sensor, human B7-H7 in solution, 1:1 global fit
T2 construct: also called human B7-H7 protein
T2 sequence (looked up): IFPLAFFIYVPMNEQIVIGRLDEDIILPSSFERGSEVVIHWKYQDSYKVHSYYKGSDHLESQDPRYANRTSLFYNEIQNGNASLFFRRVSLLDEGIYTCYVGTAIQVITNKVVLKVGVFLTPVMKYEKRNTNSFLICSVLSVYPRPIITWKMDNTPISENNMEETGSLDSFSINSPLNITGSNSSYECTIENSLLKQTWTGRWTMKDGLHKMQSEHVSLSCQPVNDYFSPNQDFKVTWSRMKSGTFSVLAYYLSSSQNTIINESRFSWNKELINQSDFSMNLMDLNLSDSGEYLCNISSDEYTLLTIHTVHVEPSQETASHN
Description: The binding kinetics between antigen and antibody was analyzed using an Octet Red 96e (Fortebio) molecular interaction analyzer by biolayer interferometry (BLI) technology.
For determining the affinity of antibodies for antigens, the rotary speed of the sensor was set at 1000 rpm. AHC sensors (Fortebio, #18-5060) placed in one column were first equilibrated in a test buffer for 10 minutes, and then used to capture the anti-B7-H7 antibodies at a capture height of 0.7 nm; and after being equilibrated in the buffer for 120 s, the AHC sensors bound to human B7-H7 (concentrations: 50-3.125 nM and 0 nM) with 2-fold gradient dilution for 180 s and dissociated for 300 s. The AHC sensors were finally regenerated by immersing in a 10 mM glycine-hydrochloric acid solution with pH 1.5 to elute the protein bound to the sensors.
For data analysis using Octet Data Analysis software (Fortebio, version 11.0), 0 nM well was used as the reference well, reference subtraction was performed, “1:1 Global fitting” method was selected for data fitting, the kinetic parameters of the binding of the antigen to the antigen-binding protein were calculated, and the kₒₙ (1/Ms) value, kdis (1/s) value and KD (M) value were obtained.

[3] = molecular target: T1, biotinylated human B7-H7 protein (Acro …); assay: BLI epitope competition on SA-captured biotinylated B7-H7; competitor (first antibody) PR003249
Description: Epitope competition experiments were performed on the anti-B7-H7 antibodies using the ForteBio Octet Red96e platform with the same experimental buffer as described above. […] After being equilibrated in a buffer for 120 s, the sensors were immersed in various antibodies diluted to 100 nM for 240 s, and the final signal of the antibody binding to B7-H7 was recorded as the 100% signal for that antibody. Second step, epitope competition experiment: B7-H7 was captured using SA sensors at a capture height of 0.25 nm. The sensors were immersed in a first antibody (concentration: 100 nM) for 240 s, then the SA sensors were immersed in a mixture of the first antibody and a second antibody (final concentration of both antibodies: 100 nM) for 240 s, and the difference in signals before and after immersing the sensors in the mixture of the two antibodies was recorded as the signal for that antibody as the second antibody. The inhibition rate was calculated by the following equation, […]

[4] = molecular target: T3, human B7-H7 on the cell surface (human, UniProt Q9UM44 23-414); assay: flow cytometry, HCC827 cells
T3 construct: whole, on cells; also called hB7-H7; hu B7-H7
T3 sequence (looked up): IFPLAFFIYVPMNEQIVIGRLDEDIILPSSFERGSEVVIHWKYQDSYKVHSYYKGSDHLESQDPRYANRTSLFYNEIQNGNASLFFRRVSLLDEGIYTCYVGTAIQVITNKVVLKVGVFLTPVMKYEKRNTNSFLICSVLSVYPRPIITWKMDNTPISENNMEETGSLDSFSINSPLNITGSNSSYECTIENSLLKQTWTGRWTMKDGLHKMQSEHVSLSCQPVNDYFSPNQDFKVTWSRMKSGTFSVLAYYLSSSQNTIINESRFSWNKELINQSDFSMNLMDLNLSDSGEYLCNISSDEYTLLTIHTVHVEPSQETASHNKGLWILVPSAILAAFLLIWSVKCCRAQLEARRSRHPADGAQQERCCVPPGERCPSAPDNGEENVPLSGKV
Description: (§1) This example was intended to study the in vitro activity of H2L2 monoclonal antibodies against human B7-H7 in binding to human/cynomolgus monkey B7-H7. Since homologous molecules of B7-H7 were not present in mice, the detection was not performed. […] The cells were adjusted to a cell density of 1×10⁶ cells/mL, respectively. The cells were seeded in a 96-well V-bottom plate (Corning, #3894) at 100 μL/well, and the antibody to be tested at 2× final concentration with 3-fold concentration gradient dilution was then added at 100 μL/well. The cells were incubated at 4° C. for 2 hours in the dark. After the incubation, the cells were rinsed twice by adding pre-chilled PBS containing 2% BSA at 100 μl/well, and centrifuged at 500 g at 4° C. for 5 minutes, and the supernatant was discarded. […] The cells were washed twice by adding pre-chilled PBS containing 2% BSA at 100 μL/well, and centrifuged at 500 g at 4° C. for 5 minutes, and the supernatant was discarded. Finally, the cells were resuspended in pre-chilled PBS containing 2% BSA at 200 μL/well, and the fluorescence signal values were read using an ACEA Novocyte3000 flow cytometer.

[5] = molecular target: T1, biotinylated human B7-H7 protein (Acro …); assay: flow cytometry, blocking of biotinylated human B7-H7 binding to CHO-K1/KIR3DL3 cells
Description: This example was intended to study the in vitro blocking activity of human anti-B7-H7 antibodies against the binding of human B7-H7 to its receptor KIR3DL3. A CHO-K1 cell (CHO-K1/KIR3DL3, Harbour BioMed US, Inc.) overexpressing human KIR3DL3 was used in experiments at the cellular level where human B7-H7/human KIR3DL3 binding was blocked. Briefly, the CHO-K1/KIR3DL3 cells were digested and resuspended in PBS containing 2% BSA. The cells were adjusted to a cell density of 1×10⁶ cells/mL. […] The cells were incubated at 4° C. for 1 hour in the dark. […] The cells were rinsed twice by adding pre-chilled PBS containing 2% BSA at 100 μL/well, and were centrifuged at 500 g at 4° C. for 5 minutes, and the supernatant was discarded. A fluorescent secondary antibody (PE Streptavidin, BD, Cat #: 554061, 1:200) was added at 100 μL/well, and the cells were incubated at 4° C. for 30 minutes in the dark. The cells were washed twice by adding pre-chilled PBS at 200 µL/well, and centrifuged at 500 g at 4° C. for 5 minutes, and the supernatant was discarded. Finally, the cells were resuspended in pre-chilled PBS at 200 μL/well, and the fluorescence signal values were read using an ACEA Novocyte3000 flow cytometer. IC50 was calculated.

[6] = molecular target: T3, human B7-H7 on the cell surface; assay: flow cytometry, HEK-293/hu B7-H7 cells
Description: as §1

[7] = molecular target: T4, cynomolgus monkey B7-H7 on the cell surface (cynomolgus monkey); assay: flow cytometry, HEK-293/cyno B7-H7 cells
T4 construct: whole, on cells; also called cyno B7-H7
Description: as §1

[8] = molecular target: T3, human B7-H7 on the cell surface; assay: flow cytometry on LS180 cells, expression supernatant diluted 1:1, 1:10, 1:100

B1: PR003265 (antibody, human IgG1, kappa, V domains shown)
VH: QVQLVESGGGVVQPGRSLRLSCAASGFTFSTYGLHWVRQAPGKGLEWVAVIWYDESNEYYADSVKGRFTISRDNSKNTLYLQMNSLRAEDTALYYCARLAHDYGGTYFDYWGQGTLVTVSS
VL: EIVMTQSPAILSVSPGERATLSCRASQSISYNLAWYQQKPGQAPRLLIYGASIRATGIPARFSGSGSGTDFTLTISSLQSEDFAVYYCQQYNNWPPWTFGQGTKVEIKR
notes: Human IgG1; also called 78G8B3
IC50 [1]: 1.39 nM
Maximum inhibition rate (%) [1]: 102%
Kd [2]: 0.595 nM
koff [2]: 2.93e-05 s⁻¹
kon [2]: 49300 M⁻¹ s⁻¹
Competitive inhibition rate (%) [3]: 106%
EC50 [4]: 0.0903 nM
Maximum MFI [4]: 51800 MFI
IC50 [5]: 7.04 nM
Maximum inhibition rate (%) [5]: 101%
EC50 [6]: 1.24 nM
Maximum MFI [6]: 824000 MFI
EC50 [7]: 0.711 nM
Maximum MFI [7]: 451000 MFI

B2: PR004479 (antibody, human IgG1, kappa, L234A L235A, V domains shown)
VH: QVQLVESGGGVVQPGRSLRLSCAASGFTFSDYGIHWVRQAPGKGLEWVAVIWYEGSDKYYADSVRGRFTISRDNSKNTLSLQMNSLRVEDTAVYYCARDRSSGAMGYFVYWGQGTLVTVSS
VL: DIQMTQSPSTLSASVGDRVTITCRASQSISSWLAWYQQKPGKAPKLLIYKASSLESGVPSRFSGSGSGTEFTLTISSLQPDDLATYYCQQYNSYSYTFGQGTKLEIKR
notes: Variant of PR003249, H:D54E; Human IgG1 LALA; expressed supernatant only
binding result [8]: binds

B3: PR004481 (antibody, human IgG1, kappa, L234A L235A, V domains shown)
VH: QVQLVESGGGVVQPGRSLRLSCAASGFTFSDYGIHWVRQAPGKGLEWVAVIWYEGSDKYYADSVRGRFTISRDNSKNTLSLQMNSLRVEDTAVYYCARDRSSGAMGYFVYWGQGTLVTVSS
VL: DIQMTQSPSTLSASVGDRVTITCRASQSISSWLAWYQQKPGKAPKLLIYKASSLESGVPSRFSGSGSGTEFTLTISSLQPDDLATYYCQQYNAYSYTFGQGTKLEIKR
notes: Variant of PR003249, H:D54E; L:S93A; Human IgG1 LALA; expressed supernatant only
binding result [8]: binds

B4: PR004480 (antibody, human IgG1, kappa, L234A L235A, V domains shown)
VH: QVQLVESGGGVVQPGRSLRLSCAASGFTFSDYGIHWVRQAPGKGLEWVAVIWYEGSDKYYADSVRGRFTISRDNSKNTLSLQMNSLRVEDTAVYYCARDRSSGAMGYFVYWGQGTLVTVSS
VL: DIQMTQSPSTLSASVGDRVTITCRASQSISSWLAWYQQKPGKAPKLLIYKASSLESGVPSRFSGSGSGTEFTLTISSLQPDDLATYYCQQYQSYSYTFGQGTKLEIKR
notes: Variant of PR003249, H:D54E; L:N92Q; Human IgG1 LALA; expressed supernatant only
binding result [8]: binds

B5: PR004482 (antibody, human IgG1, kappa, L234A L235A, V domains shown)
VH: QVQLVESGGGVVQPGRSLRLSCAASGFTFSDYGIHWVRQAPGKGLEWVAVIWYDASDKYYADSVRGRFTISRDNSKNTLSLQMNSLRVEDTAVYYCARDRSSGAMGYFVYWGQGTLVTVSS
VL: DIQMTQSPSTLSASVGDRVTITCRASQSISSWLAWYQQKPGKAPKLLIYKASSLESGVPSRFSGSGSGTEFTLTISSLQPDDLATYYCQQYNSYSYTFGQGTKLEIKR
notes: Variant of PR003249, H:G55A; Human IgG1 LALA; expressed supernatant only
binding result [8]: binds

Further lines, results first:

binding result [8]: binds
B6: PR004486 (antibody, human IgG1, kappa, L234A L235A, V domains shown)
VH: QVQLVESGGGVVQPGRSLRLSCAASGFTFSDYGIHWVRQAPGKGLEWVAVIWYDGSDKYYADSVRGRFTISRDNSKNTLSLQMNSLRVEDTAVYYCARDRSSGAMGYFVYWGQGTLVTVSS
VL: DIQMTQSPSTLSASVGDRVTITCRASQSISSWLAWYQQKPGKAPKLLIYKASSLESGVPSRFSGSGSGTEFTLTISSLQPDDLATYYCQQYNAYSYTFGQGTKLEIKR
notes: Variant of PR003249, L:S93A; Human IgG1 LALA; expressed supernatant only

binding result [8]: binds
B7: PR004485 (antibody, human IgG1, kappa, L234A L235A, V domains shown)
VH: QVQLVESGGGVVQPGRSLRLSCAASGFTFSDYGIHWVRQAPGKGLEWVAVIWYDGSDKYYADSVRGRFTISRDNSKNTLSLQMNSLRVEDTAVYYCARDRSSGAMGYFVYWGQGTLVTVSS
VL: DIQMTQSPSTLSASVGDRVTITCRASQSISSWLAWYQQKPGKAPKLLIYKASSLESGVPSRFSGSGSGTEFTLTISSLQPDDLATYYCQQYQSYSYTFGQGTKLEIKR
notes: Variant of PR003249, L:N92Q; Human IgG1 LALA; expressed supernatant only

binding result [8]: binds
B8: PR004487 (antibody, human IgG1, kappa, L234A L235A, V domains shown)
VH: QVQLVESGGGVVQPGRSLRLSCAASGFTFSNYGMHWVRQVPGKGLEWVAVIWYEGSEKDYADSVKGRFTISRDNSKNTLYLQMNSLRVEDTAVYYCAKDLISGIYYVDHWGQGTLVTVSS
VL: DIQMTQSPSSLSASVGDRVTITCRASQGISNYLAWYQQKPGKVPKLLIYAASTLQSGVPSRFSGSGSGTDFTLTISSLQPEDVATYYCQKYNSAPFTFGPGTKVDIKR
notes: Variant of PR003259, H:D54E; Human IgG1 LALA; expressed supernatant only

binding result [8]: binds
B9: PR004488 (antibody, human IgG1, kappa, L234A L235A, V domains shown)
VH: QVQLVESGGGVVQPGRSLRLSCAASGFTFSNYGMHWVRQVPGKGLEWVAVIWYEGSEKDYADSVKGRFTISRDNSKNTLYLQMNSLRVEDTAVYYCAKDLISGIYYVDHWGQGTLVTVSS
VL: DIQMTQSPSSLSASVGDRVTITCRASQGISNYLAWYQQKPGKVPKLLIYAASTLQSGVPSRFSGSGSGTDFTLTISSLQPEDVATYYCQKYQSAPFTFGPGTKVDIKR
notes: Variant of PR003259, H:D54E; L:N92Q; Human IgG1 LALA; expressed supernatant only
